Data taken from IntAct's records for PubMed 17157788.

Biological target: aatf_human AATF (UniProt Q9NY61)
Sequence (Q9NY61 whole entry): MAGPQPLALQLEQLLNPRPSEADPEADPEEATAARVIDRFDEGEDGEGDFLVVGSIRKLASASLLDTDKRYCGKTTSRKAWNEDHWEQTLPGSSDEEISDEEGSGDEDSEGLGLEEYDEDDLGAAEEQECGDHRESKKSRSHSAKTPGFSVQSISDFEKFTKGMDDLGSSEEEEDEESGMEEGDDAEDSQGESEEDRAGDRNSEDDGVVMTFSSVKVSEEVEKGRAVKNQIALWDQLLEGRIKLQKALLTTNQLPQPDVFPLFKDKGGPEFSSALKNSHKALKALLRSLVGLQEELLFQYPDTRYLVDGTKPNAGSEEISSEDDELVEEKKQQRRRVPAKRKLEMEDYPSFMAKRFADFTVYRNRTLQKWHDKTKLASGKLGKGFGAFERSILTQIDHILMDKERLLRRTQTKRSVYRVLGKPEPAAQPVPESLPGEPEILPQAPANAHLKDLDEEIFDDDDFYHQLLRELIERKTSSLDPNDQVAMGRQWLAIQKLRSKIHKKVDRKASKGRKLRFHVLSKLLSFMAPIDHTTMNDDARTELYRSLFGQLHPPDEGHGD

## Serine/threonine-protein kinase ATR (Homo sapiens), Q13535 K2327R
  effect of a mutation on the interaction: disrupting interaction
